Data: patent US20240052045A1 (VIB VZW, published 2024)
Each block holds one binder with its values, some of them ahead of it.

What was measured:
human CCR8 [1] = target: T1, human CCR8 (human, UniProt P51685 1-355); test: competitive binding, flow cytometry
T1 construct: Expressed on HEK293, HEK293T or CHO-K1 cells, stably or transiently transfected; also called hCCR8

murine CCR8 [2] = target: T2, murine CCR8 (mouse, UniProt P56484 1-353); test: flow cytometry on cells transfected with mouse CCR8
T2 construct: Transiently expressed on HEK293/HEK293T cells or endogenously expressed on BW5147 cells; also called mouse CCR8; mCCR8
T2 sequence: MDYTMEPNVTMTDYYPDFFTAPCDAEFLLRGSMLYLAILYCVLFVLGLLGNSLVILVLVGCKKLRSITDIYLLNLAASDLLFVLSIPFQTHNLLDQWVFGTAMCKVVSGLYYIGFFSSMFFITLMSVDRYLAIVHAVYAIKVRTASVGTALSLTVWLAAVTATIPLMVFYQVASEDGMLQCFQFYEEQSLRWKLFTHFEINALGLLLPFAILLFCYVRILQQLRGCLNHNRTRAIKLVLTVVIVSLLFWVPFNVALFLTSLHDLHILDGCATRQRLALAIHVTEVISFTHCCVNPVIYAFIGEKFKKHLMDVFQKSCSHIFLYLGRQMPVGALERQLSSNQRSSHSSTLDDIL

human CCR8 [3] = target: T1, human CCR8; test: flow cytometry competition with parental VHH-64
Text: (§1) Multiple His6 tagged VHH variants were thus generated and evaluated by flow cytometry for their ability to compete for binding to hCCR8 with their FLAG3-His6 tagged parental counterpart (VHH-57, VHH-64 or VHH-67).

human CCR8 [4] = target: T1, human CCR8; test: flow cytometry on HEK293 cells with hCCR8 and chimeric/deleted variants
murine CCR8 [5] = target: T2, murine CCR8; test: flow cytometry on HEK293T cells transiently transfected with mouse CCR8
human CCR8 [6] = target: T1, human CCR8; test: flow cytometry competition with parental VHH-57
Text: as §1

human CCR8 [7] = target: T1, human CCR8; test: flow cytometry competition with parental VHH-67
Text: as §1

T1 sequence (P51685 whole entry): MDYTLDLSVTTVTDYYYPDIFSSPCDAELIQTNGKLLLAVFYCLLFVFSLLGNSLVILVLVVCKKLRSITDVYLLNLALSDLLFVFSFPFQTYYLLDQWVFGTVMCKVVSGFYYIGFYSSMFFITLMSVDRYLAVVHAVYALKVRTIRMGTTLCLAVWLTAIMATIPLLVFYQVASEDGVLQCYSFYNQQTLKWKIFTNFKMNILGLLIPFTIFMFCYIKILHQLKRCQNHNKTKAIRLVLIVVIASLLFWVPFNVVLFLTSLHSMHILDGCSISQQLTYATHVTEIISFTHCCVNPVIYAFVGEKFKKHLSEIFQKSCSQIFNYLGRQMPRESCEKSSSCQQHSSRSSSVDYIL

B1: VHH-64 (VHH)
VHH: EVQLVESGGGLVQPGGSLRLSCAVSGGIRSIIPAGWYRQVPGKQRELVAAISTAGSADYADSVKGRFTISRDNTKNTAYLQMNSLRPEDTAVYYCNGRQTGWRTRVDYWGQGTLVTVSS
notes: Monovalent VHH purified from E. coli periplasm with C-terminal FLAG3 and His6 tags; not shown: C-terminal FLAG3 and His6 tags
binding result (human CCR8 [1]): binds
binding result (murine CCR8 [2]): binds

B3: VHH-57 (VHH)
VHH: EVQLVESGGGLVQPGGSLRLSCTASGNIFSLLDMKWYRQAPGKQRELVADITSGGSTNYADPVKGRFTISRDNAKNTVYLQMNSLRPEDTAVYYCNAAPYYWGAYRRQESWGQGTLVTVSS
notes: as for B1
binding result (human CCR8 [4]): binds
binding result (murine CCR8 [5]): binds

B5: VHH-120 (VHH)
VHH: DVQLVESGGGLVQPGGSLRLSCTVSGSIFSLRTVGWYRQAPGKQRELVATISAGGATDYADSVKGRFTISRDNAKNTVYLQMNSLRPEDTAVYYCYAQDSYKIYKSRYTQDYWGQGTLVTVSS
notes: also called VHH-67 with mutations E1D, V65G, V69I, G74A; not shown: C-terminal His6 tag (no FLAG3)
binding result (human CCR8 [7]): binds

B6: VHH-121 (VHH)
VHH: DVQLVESGGGLVQPGGSLRLSCTVSGSIFSLRTVGWYRQAPGKQRELVATISAGGATDYADSVKGRFTISRDNAKNTVYLQMNSLRPEDTAVYYCYAQQSYKIYKSRYTQDYWGQGTLVTVSS
notes: also called VHH-67 with E1D, V65G, V69I, G74A, D99Q; not shown: C-terminal His6 tag (no FLAG3)
binding result (human CCR8 [7]): binds

B7: VHH-122 (VHH)
VHH: DVQLVESGGGLVQPGGSLRLSCTVSGSIFSLRTVGWYRQAPGKQRELVATISAGGATDYADSVKGRFTISRDNAKNTVYLQMNSLRPEDTAVYYCYAQDTYKIYKSRYTQDYWGQGTLVTVSS
notes: also called VHH-67 with E1D, V65G, V69I, G74A, S100T; not shown: C-terminal His6 tag (no FLAG3)
binding result (human CCR8 [7]): binds

Further lines, results first:

binding result (human CCR8 [3]): binds
B2: VHH-84 (VHH)
VHH: DVQLVESGGGLVQPGGSLRLSCAVSGGIRSIIPAGWYRQAPGKQRELVAAISTAGSADYADSVKGRFTISRDNAKNTVYLQMNSLRPEDTAVYYCNGRQTGWRTRVDYWGQGTLVTVSS
notes: also called VHH-64 with mutations E1D, V40A, T74A, A78V; not shown: C-terminal His6 tag (no FLAG3)

binding result (human CCR8 [6]): binds
B4: VHH-119 (VHH)
VHH: DVQLVESGGGLVQPGGSLRLSCTASGSIFSLLDMKWYRQAPGKQRELVADITSGGSTNYADSVKGRFTISRDNAKNTVYLQMNSLRPEDTAVYYCNAAPYYWGAYRRQESWGQGTLVTVSS
notes: also called VHH-57 with mutations E1D, N27S, P62S; not shown: C-terminal His6 tag (no FLAG3)

binding result (human CCR8 [4]): binds
binding result (murine CCR8 [5]): binds
B8: VHH-67 (VHH)
VHH: EVQLVESGGGLVQPGGSLRLSCTVSGSIFSLRTVGWYRQAPGKQRELVATISAGGATDYADSVKVRFTVSRDNGKNTVYLQMNSLRPEDTAVYYCYAQDSYKIYKSRYTQDYWGQGTLVTVSS
notes: as for B1
